Columns and labels:
Assay in all cases: cell-based or functional assay
[1] = biological target: HIV-1 Env of 0260.v5.c36 (HIV-1)
[2] = biological target: HIV-1 Env of 191821.E6.1 (HIV-1)
[3] = biological target: HIV-1 Env of 3016.V5.c36 (HIV-1)
[4] = biological target: HIV-1 Env of 6405.v4.c34 (HIV-1)
[5] = biological target: HIV-1 Env of 6535.3 (HIV-1)
[6] = biological target: HIV-1 Env of 96ZM651.02 (HIV-1)
[7] = biological target: HIV-1 Env of AC10.29 (HIV-1)
[8] = biological target: HIV-1 Env of BG505.w6m (HIV-1)
[9] = biological target: HIV-1 Env of C1080.c3 (HIV-1)
[10] = biological target: HIV-1 Env of CAAN.A2 (HIV-1)
[11] = biological target: HIV-1 Env of CAP210.E8 (HIV-1)
[12] = biological target: HIV-1 Env of CAP244.D3 (HIV-1)
[13] = biological target: HIV-1 Env of CAP256.PI (HIV-1)
[14] = biological target: HIV-1 Env of CAP256.SU (HIV-1)
[15] = biological target: HIV-1 Env of CAP45.G3 (HIV-1)
[16] = biological target: HIV-1 Env of CM244.ec1 (HIV-1)
[17] = biological target: HIV-1 Env of CNE3 (HIV-1)
[18] = biological target: HIV-1 Env of DU156.12 (HIV-1)
[19] = biological target: HIV-1 Env of DU172.17 (HIV-1)
[20] = biological target: HIV-1 Env of DU422.01 (HIV-1)
[21] = biological target: HIV-1 Env of KER2008.12 (HIV-1)
[22] = biological target: HIV-1 Env of KER2018.11 (HIV-1)
[23] = biological target: HIV-1 Env of MB201 (HIV-1)
[24] = biological target: HIV-1 Env of MB539.2B7 (HIV-1)
[25] = biological target: HIV-1 Env of PVO.04 (HIV-1)
[26] = biological target: HIV-1 Env of Q168.a2 (HIV-1)
[27] = biological target: HIV-1 Env of Q23.17 (HIV-1)
[28] = biological target: HIV-1 Env of Q259.d2.17 (HIV-1)
[29] = biological target: HIV-1 Env of Q461.e2 (HIV-1)
[30] = biological target: HIV-1 Env of Q769.d22 (HIV-1)
[31] = biological target: HIV-1 Env of Q842.d12 (HIV-1)
[32] = biological target: HIV-1 Env of QH0692.42 (HIV-1)
[33] = biological target: HIV-1 Env of REJO.67 (HIV-1)
[34] = biological target: HIV-1 Env of RHPA.7 (HIV-1)
[35] = biological target: HIV-1 Env of RW020.2 (HIV-1)
[36] = biological target: HIV-1 Env of SC422.8 (HIV-1)
[37] = biological target: HIV-1 Env of TH976.17 (HIV-1)
[38] = biological target: HIV-1 Env of THRO.18 (HIV-1)
[39] = biological target: HIV-1 Env of TRJO.58 (HIV-1)
[40] = biological target: HIV-1 Env of TRO.11 (HIV-1)
[41] = biological target: HIV-1 Env of UG037.8 (HIV-1)
[42] = biological target: HIV-1 Env of WITO.33 (HIV-1)
[43] = biological target: HIV-1 Env of ZM109.4 (HIV-1)
[44] = biological target: HIV-1 Env of ZM135.10a (HIV-1)
[45] = biological target: HIV-1 Env of ZM197.7 (HIV-1)
[46] = biological target: HIV-1 Env of ZM214.15 (HIV-1)
[47] = biological target: HIV-1 Env of ZM233.6 (HIV-1)
[48] = biological target: HIV-1 Env of ZM249.1 (HIV-1)
[49] = biological target: HIV-1 Env of ZM53.12 (HIV-1)

CAP256-VRC26.23 (antibody)
IC50 [1]: > 50 µg/mL | IC50 [2]: > 50 µg/mL | IC50 [3]: > 50 µg/mL | IC50 [4]: > 50 µg/mL | IC50 [5]: > 50 µg/mL | IC50 [6]: > 50 µg/mL | IC50 [7]: > 50 µg/mL | IC50 [8]: > 50 µg/mL | IC50 [9]: > 50 µg/mL | IC50 [10]: > 50 µg/mL | IC50 [11]: 0.019 µg/mL | IC50 [12]: > 50 µg/mL | IC50 [13]: > 50 µg/mL | IC50 [14]: 0.019 µg/mL | IC50 [15]: > 50 µg/mL | IC50 [16]: > 50 µg/mL | IC50 (neutralization, TZM-bl) [17]: > 50 µg/mL | IC50 [18]: > 50 µg/mL | IC50 [19]: > 50 µg/mL | IC50 [20]: > 50 µg/mL | IC50 [21]: > 50 µg/mL | IC50 [22]: 10 µg/mL | IC50 [23]: > 50 µg/mL | IC50 [24]: > 50 µg/mL | IC50 [25]: > 50 µg/mL | IC50 [26]: > 50 µg/mL | IC50 [27]: > 50 µg/mL | IC50 [28]: > 50 µg/mL | IC50 [29]: > 50 µg/mL | IC50 [30]: > 50 µg/mL | IC50 [31]: > 50 µg/mL | IC50 [32]: > 50 µg/mL | IC50 [33]: > 50 µg/mL | IC50 [34]: > 50 µg/mL | IC50 [35]: > 50 µg/mL | IC50 [36]: > 50 µg/mL | IC50 (neutralization, TZM-bl) [37]: > 50 µg/mL | IC50 [38]: > 50 µg/mL | IC50 [39]: > 50 µg/mL | IC50 [40]: > 50 µg/mL | IC50 [41]: > 50 µg/mL | IC50 [42]: > 50 µg/mL | IC50 [43]: > 50 µg/mL | IC50 [44]: > 50 µg/mL | IC50 [45]: > 50 µg/mL | IC50 [46]: > 50 µg/mL | IC50 [47]: > 50 µg/mL | IC50 [48]: > 50 µg/mL | IC50 [49]: 0.028 µg/mL

— patent US20200199204A1
